# Reference: paper PMC11257539 (bioRxiv, 2024)
# Non-standard residues stand in square brackets, D forms with d. No end group written: not given here. pS = N[C@@H](COP(=O)(O)O)C(=O)O
# T1: ESCPE-1 complex (SNX2/SNX6 heterodimer) (human, UniProt O60749;Q9UNH7)
# T1 sequence 1: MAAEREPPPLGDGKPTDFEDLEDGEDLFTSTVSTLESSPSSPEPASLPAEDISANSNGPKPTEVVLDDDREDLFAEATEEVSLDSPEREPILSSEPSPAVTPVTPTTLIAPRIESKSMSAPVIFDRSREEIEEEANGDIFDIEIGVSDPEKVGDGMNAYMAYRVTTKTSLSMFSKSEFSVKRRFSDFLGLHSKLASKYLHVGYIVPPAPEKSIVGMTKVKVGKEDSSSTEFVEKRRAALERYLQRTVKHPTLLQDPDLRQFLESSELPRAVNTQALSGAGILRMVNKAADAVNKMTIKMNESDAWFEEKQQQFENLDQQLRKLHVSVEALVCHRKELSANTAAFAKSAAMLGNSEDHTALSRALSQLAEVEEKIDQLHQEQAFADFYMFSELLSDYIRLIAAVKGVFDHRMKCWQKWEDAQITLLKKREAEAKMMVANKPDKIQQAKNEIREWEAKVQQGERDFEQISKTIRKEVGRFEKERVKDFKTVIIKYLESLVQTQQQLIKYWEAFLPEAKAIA
# T1 sequence 2: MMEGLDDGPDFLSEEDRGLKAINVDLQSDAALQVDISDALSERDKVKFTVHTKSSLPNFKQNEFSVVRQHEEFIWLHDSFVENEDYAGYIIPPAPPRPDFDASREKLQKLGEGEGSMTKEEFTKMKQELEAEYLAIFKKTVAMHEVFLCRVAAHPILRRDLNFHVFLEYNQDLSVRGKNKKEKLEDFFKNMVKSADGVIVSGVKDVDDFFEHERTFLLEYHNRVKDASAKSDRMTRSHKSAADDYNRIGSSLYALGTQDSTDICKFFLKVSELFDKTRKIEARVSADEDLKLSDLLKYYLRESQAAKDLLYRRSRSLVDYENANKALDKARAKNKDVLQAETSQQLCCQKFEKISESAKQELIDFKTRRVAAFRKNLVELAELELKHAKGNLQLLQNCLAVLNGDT
# Columns and labels:
# [1] = target: SNX27 full-length (purified, as analyte in BLI and in liposome pelleting) (human, UniProt Q96L92 1-541); assay: co-sedimentation
# [2] = target: T1, ESCPE-1 complex (SNX2/SNX6 heterodimer); assay: co-sedimentation
# [3] = target: SNX27 PDZ domain (purified, BLI analyte and ITC cell) (human, UniProt Q96L92 43-136); assay: ITC
binder,measurement,setting,value
YTVLHRGHHQELEKLPIHNDPESLESCF [His-tagged PDZbm cargo: C-terminal cytosolic tail of 5-HT4(a)R (residues 360-388)],binding result,[1],binds
SNVSYKYSKVNKEEETDENETEWLMEEIQ [CI-MPR cargo motif (residues 2347-2375)],binding result,[2],binds
E[pS]LESCF [PDZbm cargo peptide 5-HT4(a)R-pS-5 (EpSLESCF)],Kd,[3],1.1 µM
same,dH,[3],-63.6 kJ/mol
same,stoichiometry N,[3],1.1
